The values that follow come from patent US20190202925A1.

In assay [1] the target is cynomolgus TNFR2 on cells (cynomolgus). The assay can be described thus: flow cytometry on cynomolgus PBMC, antibody at 10 ug/mL, anti-human Fc-PE secondary; negative control. For orientation: A flow cytometer gives signals particle by particle.
Assay [2] addresses human TNFR2 on cells (human) (UniProt P20333). The assay can be described thus: flow cytometry on human PBMC, antibody at 10 ug/mL, anti-human Fc-PE secondary; negative control.

human TNFR2 on cells (human), sequence (P20333 23-461): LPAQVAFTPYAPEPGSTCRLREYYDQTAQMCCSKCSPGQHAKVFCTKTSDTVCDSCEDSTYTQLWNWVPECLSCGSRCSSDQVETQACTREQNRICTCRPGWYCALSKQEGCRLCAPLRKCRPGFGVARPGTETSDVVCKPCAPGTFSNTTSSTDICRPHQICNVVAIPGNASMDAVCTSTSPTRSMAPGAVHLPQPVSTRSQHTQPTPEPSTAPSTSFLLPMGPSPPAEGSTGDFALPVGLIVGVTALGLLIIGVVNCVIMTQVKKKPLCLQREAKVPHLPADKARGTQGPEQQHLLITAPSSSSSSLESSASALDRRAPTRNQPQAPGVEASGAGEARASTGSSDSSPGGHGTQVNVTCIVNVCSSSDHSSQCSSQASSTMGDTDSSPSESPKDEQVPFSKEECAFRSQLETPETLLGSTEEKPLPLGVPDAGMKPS

On to “Isotype Control (Negative Control) (antibody)”, for which, in assay [1], the % CD4^+ ab^+ Donor 1 was 0.2%, the % CD4^+ ab^+ Donor 2 turned out to be 0.5%, the % CD8^+ ab^+ Donor 1 is 0.2% and the % CD8^+ ab^+ Donor 2 was 0.6%. In assay [2], this substance yielded a % CD4^+ ab^+ Donor 1 of 0.7%, a % CD4^+ ab^+ Donor 2 of 0.7%, a % CD8^+ ab^+ Donor 1 of 0.5% and a % CD8^+ ab^+ Donor 2 of 0.7%.
